Earlier results in article PMC2943937.

Target: CAR (Mus musculus) (UniProt P97792)
Sequence of UniProt P97792 (P97792 20-237): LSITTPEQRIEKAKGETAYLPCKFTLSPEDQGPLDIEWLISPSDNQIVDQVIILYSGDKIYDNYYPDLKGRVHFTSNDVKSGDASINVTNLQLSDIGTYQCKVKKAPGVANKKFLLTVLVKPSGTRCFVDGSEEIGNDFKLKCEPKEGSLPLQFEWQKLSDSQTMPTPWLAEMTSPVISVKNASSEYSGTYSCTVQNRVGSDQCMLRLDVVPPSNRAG

Kd: 5 µM
Substance: JAML (from UniProt Q80UL9)
